Reference: patent US20200354427A1 (Eli Lilly, published 2020)

T1: human RANKL (receptor activator of nuclear factor kappa-B ligand) (human, UniProt O14788 140-317, limits assumed)
T1 sequence (looked up): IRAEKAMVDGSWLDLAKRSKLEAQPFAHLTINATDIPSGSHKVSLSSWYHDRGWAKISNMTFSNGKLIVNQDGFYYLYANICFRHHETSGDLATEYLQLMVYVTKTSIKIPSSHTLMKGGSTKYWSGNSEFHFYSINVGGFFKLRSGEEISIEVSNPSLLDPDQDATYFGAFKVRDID

B1: RANKL neutralizing antibody (an IgG4 RANKL mAb having the same HC and LC amino acid sequences as the mAb portion of the exemplified fusion compound) (antibody, V domains shown)
VH: QVQLVQSGAEVKKPGSSVKVSCKASGYAFTNYYIEWVRQAPGQGLEWMGVINPGWGDTNYNEKFKGRVTITADKSTSTAYMELSSLRSEDTAVYYCARRDTAHGYYALDPWGQGTTVTVSS
VL: DIQMTQSPSSLSASVGDRVTITCKASQNVGTNVAWYQQKPGKAPKLLIYSASYRYSGVPSRFSGSGSGTDFTLTISSLQPEDFATYYCQQYWDYPLTFGGGTKVEIKR

Experiments:
[1] = target: PTH receptor (PTHR1 receptor) endogenously expressed by rat osteosarcoma UMR-106 cells (rat) (UniProt P25961); assay: cell-based or functional assay
Chain of PTH receptor (PTHR1 receptor) endogenously expressed by rat osteosarcoma UMR-106 cells (rat) (P25961 27-591): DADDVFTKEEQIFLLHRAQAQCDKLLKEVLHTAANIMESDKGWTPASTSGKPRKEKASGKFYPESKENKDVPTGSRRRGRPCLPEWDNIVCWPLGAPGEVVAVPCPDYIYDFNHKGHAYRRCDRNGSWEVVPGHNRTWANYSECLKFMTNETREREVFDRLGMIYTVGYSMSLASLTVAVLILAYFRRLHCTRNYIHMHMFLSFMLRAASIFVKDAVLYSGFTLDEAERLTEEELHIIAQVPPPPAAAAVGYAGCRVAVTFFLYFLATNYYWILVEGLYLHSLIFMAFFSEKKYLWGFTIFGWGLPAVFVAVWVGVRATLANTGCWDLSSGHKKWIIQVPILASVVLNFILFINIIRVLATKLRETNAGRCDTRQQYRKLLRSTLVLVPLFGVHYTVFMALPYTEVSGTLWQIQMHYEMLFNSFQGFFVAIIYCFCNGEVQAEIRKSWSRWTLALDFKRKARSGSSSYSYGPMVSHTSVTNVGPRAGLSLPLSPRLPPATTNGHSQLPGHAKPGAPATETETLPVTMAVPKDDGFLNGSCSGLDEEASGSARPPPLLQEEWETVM

[2] = target: T1, human RANKL (receptor activator of …); assay: cell-based or functional assay

Molecule	EC50 (nM); PTHR1 activation, CRE-regulated luciferase luminescence in UMR-106 cells [1] [nM]	IC50 (nM) hRANKL; neutralization of RANKL-induced NF-kB driven luciferase luminescence [2] [nM]
PTH peptide (a 38 amino acid parathyroid hormone peptide)	5.6	–
B1	–	0.069
